Experimental data: patent US20190085093

Assays:
[1] = target: FCHo1-C-3×DDK mutation Δ531-589, O14526
[2] = target: FCHo1-C-3×DDK mutation Δ563-564, O14526
FCHo1-C-3×DDK mutation Δ563-564, O14526, sequence (O14526 whole entry, looked up, stated change not applied, tested part not stated): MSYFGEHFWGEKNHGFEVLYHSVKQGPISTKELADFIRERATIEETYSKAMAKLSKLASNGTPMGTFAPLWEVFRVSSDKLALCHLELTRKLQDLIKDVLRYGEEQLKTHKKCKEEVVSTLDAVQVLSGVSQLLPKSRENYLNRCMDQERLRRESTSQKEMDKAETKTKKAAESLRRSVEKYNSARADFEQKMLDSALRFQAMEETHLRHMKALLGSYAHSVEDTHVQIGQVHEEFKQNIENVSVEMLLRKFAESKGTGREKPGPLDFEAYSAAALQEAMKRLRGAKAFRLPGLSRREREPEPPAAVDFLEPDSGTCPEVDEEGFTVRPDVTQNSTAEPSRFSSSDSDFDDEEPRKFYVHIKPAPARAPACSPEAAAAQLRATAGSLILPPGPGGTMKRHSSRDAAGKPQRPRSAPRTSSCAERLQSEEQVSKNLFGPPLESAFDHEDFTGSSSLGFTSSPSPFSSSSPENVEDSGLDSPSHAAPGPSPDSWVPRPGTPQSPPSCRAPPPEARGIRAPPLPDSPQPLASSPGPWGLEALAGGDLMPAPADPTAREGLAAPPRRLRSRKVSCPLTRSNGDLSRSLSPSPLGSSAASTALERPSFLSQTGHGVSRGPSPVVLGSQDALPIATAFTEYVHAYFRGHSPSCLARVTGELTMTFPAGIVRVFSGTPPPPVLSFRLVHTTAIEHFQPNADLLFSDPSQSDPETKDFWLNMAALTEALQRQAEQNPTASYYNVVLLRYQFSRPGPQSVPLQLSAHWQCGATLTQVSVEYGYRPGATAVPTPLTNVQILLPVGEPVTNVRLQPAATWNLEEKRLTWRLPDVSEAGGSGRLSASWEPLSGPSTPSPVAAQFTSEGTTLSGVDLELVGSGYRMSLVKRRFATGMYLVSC

FCHo1-C-3×DDK mutation Δ531-589, O14526, sequence (O14526 whole entry, looked up, stated change not applied, tested part not stated): as above

B1: matrix metallopeptidase 9 (MMP-9) (protein)
chain: APRQRQSTLVLFPGDLRTNLTDRQLAEEYLYRYGYTRVAEMRGESKSLGPALLLLQKQLSLPETGELDSATLKAMRTPRCGVPDLGRFQTFEGDLKWHHHNITYWIQNYSEDLPRAVIDDAFARAFALWSAVTPLTFTRVYSRDADIVIQFGVAEHGDGYPFDGKDGLLAHAFPPGPGIQGDAHFDDDELWSLGKGVVVPTRFGNADGAACHFPFIFEGRSYSACTTDGRSDGLPWCSTTANYDTDDRFGFCPSERLYTQDGNADGKPCQFPFIFQGQSYSACTTDGRSDGYRWCATTANYDRDKLFGFCPTRADSTVMGGNSAGELCVFPFTFLGKEYSTCTSEGRGDGRLWCATTSNFDSDKKWGFCPDQGYSLFLVAAHEFGHALGLDHSSVPEALMYPMYRFTEGPPLHKDDVNGIRHLYGPRPEPEPRPPTTTTPQPTAPPTVCPTGPPTVHPSERPTAGPTGPPSAGPTGPPTAGPSTATTVPLSPVDDACNVNIFDAIAEIGNQLYLFKDGKYWRFSEGRGSRPQGPFLIADKWPALPRKLDSVFEERLSKKLFFFSGRQVWVYTGASVLGPRRLDKLGLGADVAQVTGALRSGRGKMLLFSGRRLWRFDVKAQMVDPRSASEVDRMFPGVPLDTHDVFQYREKAYFCQDRFYWRVSSRSELNQVDQVGYVTYDILQCPED
[1]
  zymography of MMP-9 after FLAG immunoprecipitation: the activity of MMP-9 is suppressed in FCHo1 deletion mutations A563-564 and A531-589 compared with the wild-type
[2]
  zymography of MMP-9 after FLAG immunoprecipitation: the activity of MMP-9 is suppressed in FCHo1 deletion mutations A563-564 and A531-589 compared with the wild-type
